Reference: patent US20220267422A1 (PHAROSGEN, published 2022)

Columns and labels:
[1] = molecular target: T1, human doppel on human tumor endothelial cells (human, UniProt Q9UKY0 26-152); assay: flow cytometry on human tumor endothelial cells, cancer cells and doppel knock-down cells
T1 construct: whole, on cells; also called PRND; hPRND

[2] = molecular target: doppel (Prnd) recombinant protein immobilized on the SPR sensor chip; assay: SPR, BIAcore T100, recombinant protein immobilized on chip
Experimental: Affinity measurements of anti-doppel monoclonal antibodies produced by the clones described herein with Prnp and Prnd (doppel) were performed by the surface plasmon resonance on a BIAcore T100 (GE Healthcare). Using the standard EDAC-NHS coupling method, recombinant proteins were immobilized at a density of 4000-7000 onto a sensor chip (GE Healthcare). Measurements were performed at a flow rate of 20 μL/min, and 50 mM NaOH was used to regenerate the chip surface after each cycle of analysis. Each concentration was analyzed in duplicate. Kinetic analysis of the data obtained was performed using BIAcore T100 evaluation software (GE Healthcare).

[3] = molecular target: T2, Doppel on HCT116 cells, HUVEC and Dpl k/d HUVEC (human, UniProt Q9UKY0); assay: flow cytometry, '% Doppel Ab binding cell' on HCT116, HUVEC and doppel knock-down HUVEC (24h, 48h); no control antibody and no concentration shown
T2 construct: endogenous, on the surface of HCT116 cells, HUVEC and doppel knock-down HUVEC; also called PRND

[4] = molecular target: T3, mPRND; assay: ELISA, […], antibody 0-100 nM; […] (nM)'
T3 construct: also called Mouse PRND; mouse doppel, recombinant, C-terminal His tag
T3 single chain: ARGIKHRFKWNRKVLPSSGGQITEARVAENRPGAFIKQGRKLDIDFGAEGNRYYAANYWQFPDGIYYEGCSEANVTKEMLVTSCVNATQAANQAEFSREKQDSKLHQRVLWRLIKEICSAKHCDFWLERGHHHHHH

[5] = molecular target: T1, human doppel on human tumor endothelial …; assay: flow cytometry on HCTEC (human colonic tumor endothelial cells), fluorescent secondary antibody; no control bar and no antibody concentration shown
[6] = molecular target: T3, mPRND; assay: ELISA, […], antibody 0-100 nM; […] (nM)'
[7] = molecular target: T3, mPRND; assay: ELISA, […], antibody 0-100 nM; […] (nM)'; […]

B1: Human monoclonal antibody A12 (antibody, V domains shown)
VH: not shown
VL: DIQMTQSPSSLSASVGDRVTITCRASQSIGSYLNWYQQKPGKAPKLLIYAASTLQSGVPSRFSGSGSGTDFTLTISSLQPEDFATYYCQQSYSFPWTFGQGTKVEIKR
What does the source list for B1?
binding result [1]: binds; Kd [2]: 9.2 nM; binding result [3]: binds

B2: Human monoclonal antibody E9 (antibody, human IgG1, kappa, V domains shown)
VH: QVQLVQSGAEVKKPGSSVKVSCKASGGTFSSYYMHWVRQAPGQGLEWMGRISPGGGGTIYAQKFQGRVTITADESTSTAYMELSSLRSEDTAVYYCARAQSEGLSYYFDVWGQGTLVTVSS
VL: DIQMTQSPSSLSASVGDRVTITCRASQSIRNYLNWYQQKPGKAPKLLIYAASNLQSGVPSRFSGSGSGTDFTLTISSLQPEDFATYYCQQSSSFPLTFGQGTKVEIKR
For B2, which Kd [2] is on record?
The Kd was 4.41 nM.

B3: Human monoclonal antibody B2 (antibody, V domains shown)
VH: not shown
VL: DIQMTQSPSSLSASVGDRVTITCRASQSISNYLNWYQQKPGKAPKLLIYAASRLQSGVPSRFSGSGSGTDFTLTISSLQPEDFATYYCQQSYSFPWTFGQGTKVEIKR
Does B3 bind [1]?
Result: binds

And the Kd [2]?
Its Kd is 7.99 nM.

Does B3 bind [3]?
Result: binds

B4: murine monoclonal antibody produced by hybridoma cell line clone 7A11 (antibody, V domains shown)
VH: QVQLQQPGAELVRPGASVKLSCKASGYTFTSYWINWVKQRPGQGLEWIGNIYPSDSYTNYNQKFKDKATLTVDKSSSTAYMQLSSPTSEDSAVYYCTRSMITWGQGTTLTVSS
VL: DVLMTQTPLSLPVSLGDQASISCRSSQSIVHSNGNTYLEWYLQKPGQSPKVLIYKVSNRFSGVPDRFSGSGSGTDFTLKINRVEAEDLGVYYCFQGSHVPLTFGAGTKLELK
notes: also called hPrnd #7A11; KCLRF-BP-00498
Which Kd [4] does the source give for B4 here?
Its Kd is 0.876 nM.

And the Kd [2]?
The Kd was 0.253 nM.

B5: murine monoclonal antibody produced by hybridoma cell line clone 4H7 (antibody, V domains shown)
VH: DVQLQESGPDLVKPSQSLSLTCTVTGYSITSGYSWHWIRQFPGNKLEWMGYIHYSGNTNYNPSLKSRISITRDTSKNQFFLQLNSVTTEDTATYSCAMRTYYYGPLDYWGQGTTLTVSS
VL: not shown
notes: also called hPrnd #4H7; KCLRF-BP-00496
Does B5 bind [5]?
Result: binds

What about the Kd [6] of the same binder?
Its Kd is 0.868 nM.

And the Kd [2]?
The Kd was 0.0287 nM.

B6: murine monoclonal antibody produced by hybridoma cell line clone 2C10 (antibody, V domains shown)
VH: EVQLQESGPSLVKPSQTLSLTCSVTGDSITSGYWNWIRKFPGNKLEYMGYIRYSGSAYYNPSLKSRISITRDTSKNQYYLQLNSVTTEDTATYYCARYPYYGSYWYFDVWGAGTTVTVSS
VL: DVQITQSPSYLAASPGETITLNCRASKSISKYLAWYQEKPGKTNKLLIYSGSTLQSGIPSRFSGSGSGSDFTLTISSLEPEDFAMYYCQQHSEYPWTFGGGTKLEIK
notes: also called hPrnd #2C10; KCLRF-BP-00491
Does B6 bind [1]?
Result: binds

What about the Kd [2] of the same binder?
The Kd was 8.76 nM.

Does B6 bind [3]?
Result: binds

B7: murine monoclonal antibody produced by hybridoma cell line clone 2E9 (antibody, V domains shown)
VH: not shown
VL: DVQMTQTTSSLSASLGDRVTISCSASRGISNYLNWYQQKPDGTVKLLIYYTSSLHSGVPPRFSGSGSGTDYSLTISNLEPEDIATYYCQQYSKLPSTFGGGTKVEIK
notes: also called hPrnd #2E9; KCLRF-BP-00493
Does B7 bind [5]?
Result: binds

What about the Kd [2] of the same binder?
The Kd was 4.05 nM.

B8: murine monoclonal antibody produced by hybridoma cell line clone 7G3 (antibody, V domains shown)
VH: EIQLQQTGPELVKPGASVKISCKASGYSFTDYIMLWVKQSHGKSLEWIGNINPYYGSTSYNLKFKGKATLTVDKSSSTAYMQLNSLTSEDSAVYYCARRNYYGNYDAMDYWGQGTSVTVSS
VL: QIVLTQSPAIMSASLGERVTMTCTASSSVSSSYLHWYQQKPGSSPKLWIYSTSNLASGVPARFSGSGSGTSYSLTISSMEAEDTATYYCHQYHRSPLTFGAGTKLELK
notes: also called hPrnd #7G3; KCLRF-BP-00500
Which Kd [7] does the source give for B8 here?
Its Kd is 25.9 nM.

Does B8 bind [5]?
Result: binds

And the Kd [2]?
The Kd was 10.6 nM.

Does B8 bind [3]?
Result: binds

B9: murine monoclonal antibody produced by hybridoma cell line clone 2B6 (antibody, V domains shown)
VH: QVQLQQSGAELVRPGVSVKLSCKFSGFTFTDYAMHWVRQSHAKSLAWIGVISSYYGDASYNQKFTGKATMTVDKSSSTAYMELARLTSEDSAIYYCARRLRGAMDYWGQGTSVTVSS
VL: DIVMTQSQKFMSTSVGDRVSVTCKASQNVDANVAWYQQKPGQSPKALIYSASYRYSGVPYRFTGSGSGTDFTLTISNVQSADLAEYFCQQYNSYPFTFGSGTKLELK
notes: also called hPrnd #2B6; KCLRF-BP-00490
How did the Kd [4] turn out when B9 was run?
The Kd was 6.52 nM.

Does B9 bind [5]?
Result: binds

What about the Kd [2] of the same binder?
Its Kd is 0.292 nM.

Does B9 bind [3]?
Result: binds
